Patent US10781262B2, “Combination therapy of T cell activating bispecific antigen binding molecules and PD-1 axis binding antagonists” (Hoffmann-La Roche Inc., priority 2014, dated 2020)
Positions count from the first letter of the chain named. Read-outs that look alike come from different tables or passages of the source.

B1: 11F8: anti-FolR1 clone, generic multi-framework library (Vk_1_5/VH_1_69); Fab and IgG (antibody, V domains shown)
VH: QVQLVQSGAEVKKPGSSVKVSCKASGGTFSSYAISWVRQAPGQGLEWMGGIIPIFGTANYAQKFQGRVTITADKSTSTAYMELSSLRSEDTAVYYCARAVFYRAWYSFDYWGQGTTVTVSS
VL: DIQMTQSPSTLSASVGDRVTITCRASQSISSWLAWYQQKPGKAPKLLIYDASSLESGVPSRFSGSGSGTEFTLTISSLQPDDFATYYCQQYTSPPPTFGQGTKVEIK
B2: 36F2: anti-FolR1 clone, generic multi-framework library (Vk_3_20/VH_1_46); Fab and IgG (antibody, V domains shown)
VH: QVQLVQSGAEVKKPGASVKVSCKASGYTFTSYYMHWVRQAPGQGLEWMGIINPSGGSTSYAQKFQGRVTMTHDTSTSTVYMELSSLRSEDTAVYYCARSFFTGFHLDYWGQGTLVTVSS
VL: EIVLTQSPGTLSLSPGERATLSCRASQSVSSSYLAWYQQKPGQAPRLLIYGASSRATGIPDRFSGSGSGTDFTLTISRLEPEDFAVYYCQQYTNEHYYTFGQGTKVEIK
B3: 5D9: anti-FolR1 clone, generic multi-framework library (Vk3_20/VH1_46); Fab and IgG (antibody, V domains shown)
VH: QVQLVQSGAEVKKPGASVKVSCKASGYTFTSYYMHWVRQAPGQGLEWMGIINPSGGSTSYAQKFQGRVTMTRDTSTSTVYMELSSLRSEDTAVYYCARSYIDMDYWGQGTLVTVSS
VL: EIVLTQSPGTLSLSPGERATLSCRASQSVSSSYLAWYQQKPGQAPRLLIYGASSRATGIPDRFSGSGSGTDFTLTISRLEPEDFAVYYCQQDNWSPTFGQGTKVEIK
B4: 6B6: anti-FolR1 clone, generic multi-framework library (Vk3_20/VH1_46); Fab and IgG (antibody, V domains shown)
VH: B3 VH with I101V
VL: B3 VL with N93I

What was measured:
human FolR3 [1] = molecular target: T1, human FolR3 (Homo sapiens, UniProt P41439); settings: IgG injected for 60 seconds at 500 nM
Procedure: (§1) Binding of FolR1 binders as IgG or in the T-cell bispecific format to different recombinant folate receptors (human FolR1, 2 and 3, murine FolR1 and cynomolgus FolR1; all as Fc fusions) was assessed by surface plasmon resonance (SPR). All SPR experiments were performed on a Biacore T200 at 25° C. with HBS-EP as running buffer (0.01 M HEPES pH 7.4, 0.15 M NaCl, 3 mM EDTA, 0.005% Surfactant P20, Biacore, Freiburg/Germany).
(§2) First the anti-FolR1 IgGs were analyzed by single injections (Table 1) to characterize their crossreactivity (to human, murine and cyno FolR1) and specificity (to human FolR1, human FolR2, human FolR3). Recombinant biotinylated monomeric Fc fusions of human, cynomolgus and murine Folate Receptor 1 (FolR1-Fc) or human Folate Receptor 2 and 3 (FolR2-Fc, FolR3-Fc) were directly coupled on a SA chip using the standard coupling instruction (Biacore, Freiburg/Germany). The immobilization level was about 300-400 RU. The IgGs were injected for 60 seconds at a concentration of 500 nM.

murine FolR1 [2] = molecular target: murine FolR1 (Mus musculus, UniProt P35846); settings: IgG injected for 60 seconds at 500 nM
Procedure: as §1, §2

human FolR2 [3] = molecular target: T2, human FolR2 (Homo sapiens, UniProt P14207); settings: IgG injected for 60 seconds at 500 nM
Procedure: as §1, §2

human FolR1 [4] = molecular target: T3, human FolR1 (Homo sapiens, UniProt P15328); settings: IgG injected for 60 seconds at 500 nM
Procedure: as §1, §2

cynomolgus FolR1 [5] = settings: IgG injected for 60 seconds at 500 nM
Procedure: as §1, §2

human FolR1 [6] = molecular target: T3, human FolR1; settings: read-out: KD huFolR1; Fab-format, generic multi-framework sub-libraries, 25° C.
Procedure: (§3) Immobilization of antigens (ligand): Recombinant antigens were diluted with PBST (10 mM phosphate, 150 mM sodium chloride pH 7.4, 0.005% Tween 20) to […] injected at 30 μl/minute in vertical orientation. Injection of analytes: For ‘one-shot kinetics’ measurements, injection direction was changed to horizontal orientation, two-fold dilution series of purified Fab (varying concentration ranges) were injected simultaneously along separate channels 1-5, with association times of 200 s, and dissociation times of 600 s. Buffer (PBST) was injected along the sixth channel to provide an “in-line” blank for referencing. Association rate constants (kon) and dissociation rate constants (koff) were calculated using a simple one-to-one Langmuir binding model in ProteOn Manager v3.1 software by simultaneously fitting the association and dissociation sensorgrams. The equilibrium dissociation constant (KD) was calculated as the ratio koff/kon.
(§4) Immobilization of antigens (ligand): Recombinant antigens were diluted with PBST (10 mM phosphate, 150 mM sodium chloride pH 7.4, 0.005% Tween 20) to 10 μg/ml, then injected at 30 μl/minute in vertical orientation. Injection of analytes: For ‘one-shot kinetics’ measurements, injection direction was changed to horizontal orientation, two-fold dilution series of purified Fab (varying concentration ranges) were injected simultaneously along separate channels 1-5, with association times of 150 or 200 s, and dissociation times of 200 or 600 s, respectively. Buffer (PBST) was injected along the sixth channel to provide an “in-line” blank for referencing. Association rate constants (kon) and dissociation rate constants (koff) were calculated using a simple one-to-one Langmuir binding model in ProteOn Manager v3.1 software by simultaneously fitting the association and dissociation sensorgrams. The equilibrium dissociation constant (KD) was calculated as the ratio koff/kon.

cynomolgus FolR1 [7] = settings: read-out: KD cyFolR1; Fab-format, generic multi-framework sub-libraries, 25° C.
Procedure: as §3, §4

human FolR2 [8] = molecular target: T2, human FolR2; experiment: SPR affinity of selected Fab clones (ProteOn XPR36); format: binding; parameters: the extracellular domain of the antigen linked to the hinge region of Fc-knob; made in house; host or cells: HEK293 EBNA; settings: Fab-format, generic multi-framework sub-libraries, 25° C.
human FolR3 [9] = molecular target: T1, human FolR3; experiment: as above; format: binding; parameters: the extracellular domain of the antigen linked to the hinge region of Fc-knob; made in house; host or cells: HEK293 EBNA; settings: Fab-format, generic multi-framework sub-libraries, 25° C.
huFolR1-Fc = experiment: SPR epitope binning; format: binding, human
Procedure: 500 nM huFolR1-Fc was then captured for 60 s, followed by 500 nM of the different binders for 30 s. The surface was regenerated with two injections of 10 mM glycine pH 2 for 30 s each.

[10] = molecular target: T4, human Folate Receptor 1 (FolR1-Fc) (Homo sapiens, UniProt P15328); experiment: SPR avidity to Folate Receptor 1 (bivalent binding)
T4 construct: the extracellular domain of the antigen linked to the hinge region of Fc-knob; made in house; host or cells: HEK293 EBNA
Text: The immobilization level was about 300-400 RU. […] The dissociation was monitored for 600 seconds.

[11] = molecular target: murine Folate Receptor 1 (FolR1-Fc) (Mus musculus, UniProt P35846); settings: bivalent binding (avidity), ligand muFolR1; 19H3 IgG with folate 2.3 μM in running buffer
Procedure: as §1
(§5) The avidity of the interaction between the anti-FolR1 IgGs or T cell bispecifics and the recombinant folate receptors was determined as described below (Table 9). Recombinant biotinylated monomeric Fc fusions of human, cynomolgus and murine Folate Receptor 1 (FolR1-Fc) were directly coupled on a SA chip using the standard coupling instruction (Biacore, Freiburg/Germany). The immobilization level was about 300-400 RU. The anti-FolR1 IgGs or T cell bispecifics were passed at a concentration range from 2.1 to 500 nM with a flow of 30 μL/minutes through the flow cells over 180 seconds. The dissociation was monitored for 600 seconds. […] The binding curves resulting from the bivalent binding of the IgGs or T cell bispecifics were approximated to a 1:1 Langmuir binding and fitted with that model (which is not correct, but gives an idea of the avidity). The apparent avidity constants for the interactions were derived from the rate constants of the fitting using the Bia Evaluation software (GE Healthcare).

[12] = tested on: cynomolgus Folate Receptor 1 (FolR1-Fc); settings: bivalent binding (avidity), ligand cyFolR1
Procedure: as §1, §5

[13] = tested on: HEK cells transiently transfected with human FolR1 or human FolR2; experiment: Flow cytometry specificity on transfected HEK cells; format: binding; settings: IgG
Procedure: FIGS. 3A-B depict graphs summarizing specificity of FolR1 binders for FolR1. Binding of FolR1 IgGs to HEK cells transiently transfected with either FolR1 or FolR2 was analyzed by flow cytometry to identify clones which bind specifically to FolR1 and not to FolR2.
(§6) New FolR1 hinders were generated via Phage Display using either a Fab library or a common light chain library using the CD3 light chain. The identified binders were converted into a human IgG1 format and binding to FolR1 high expressing HeLa cells was addressed. As reference molecule the human FolR1 binder Mov19 was included. […] In a next step the selected clones were tested for specificity to human FolR1 by excluding binding to the closely related human FolR2. HEK cells were transiently transfected with either human FolR1 or human FolR2 to address specificity. […] Therefore these clones were excluded from further characterization. In parallel cross-reactivity of the FolR1 clones to cyno FolR1 was addressed by performing binding studies to HEK cells transiently transfected with cyno FolR1. […] Subsequently three human FolR1 specific cyno cross-reactive binders were converted into TCB format and tested for induction of T cell killing and T cell activation. […] As reference molecule Mov19 FolR1 TCB was included in all studies. These FoLR1 TCBs were then used to compare induction of internalization after binding to FolR1 on HeLa cells.

[14] = tested on: HEK cells transiently transfected with cyno FolR1; experiment: Flow cytometry cross-reactivity on transfected HEK cells; format: binding, cynomolgus; settings: IgG
Text: FIGS. 4A-B depict graphs summarizing cross-reactivity of FolR1 binders to cyFoLR1. Cross-reactivity of the FolR1 antibodies to cyno FolR1 was addressed on HEK cells transiently transfected with cyFolR1 by flow cytometry.
as §6

murine FolR1 [15] = molecular target: murine FolR1 (Mus musculus, UniProt P35846, C103A); settings: Fab-format, generic multi-framework sub-libraries, 25° C.
Procedure: as §3, §4

[16] = bivalent binding (avidity), ligand huFolR1

| Molecule | Binding to huFolR3 (human FolR3 [1]) | Binding to muFolR1 (murine FolR1 [2]) | Binding to huFolR2 (human FolR2 [3]) | Binding to huFolR1 (human FolR1 [4]) | Binding to cyFolR1 (cynomolgus FolR1 [5]) | Kd (human FolR1 [6]) [nM] | Kd (cynomolgus FolR1 [7]) [nM] | KD huFolR2 (human FolR2 [8]) | KD huFolR3 (human FolR3 [9]) | KD muFolR1 (murine FolR1 [15]) | further results |
| --- | --- | --- | --- | --- | --- | --- | --- | --- | --- | --- | --- |
| B1 | + | + | + | + | + | 632 | 794 | no binding | no binding |  |  |
| B2 | − | + | − | + | + |  |  | no binding | no binding |  | epitope characterization on human FolR1 (in words) (huFolR1-Fc): binds to a different epitope than Mov19 and Farletuzumab; epitope characterization on human FolR1 (in words) (huFolR1-Fc; listed as 36F2 IgG): Measure not possible, huFolR1 dissociates too rapidly; dissociation from huFolR1 (in words) [10]: dissociated rapidly from huFolR1; ka [10, 16]: 2.62e+06 M⁻¹ s⁻¹; kd [10, 16]: 0.0151 s⁻¹; ka [11]: 370000 M⁻¹ s⁻¹; kd [11]: 0.000603 s⁻¹; ka [12]: 3.02e+06 M⁻¹ s⁻¹; kd [12]: 0.016 s⁻¹; specificity for human FolR1 versus human FolR2 on transfected HEK cells [13]: specifically to human FolR1 and not to human FolR2; binding to cyno FolR1 on transfected HEK cells [14]: bind comparably well human and cyno FoLR1 |
| B3 | + | − | + | + | + | 8.6 | 5.9 | no binding | no binding | no binding |  |
| B4 | + | − | + | + | + | 14.5 | 9.4 | no binding | no binding | no binding |  |
